{"source": "patent US9249224B2", "about": "(RINAT NEUROSCIENCE CORP., priority 2011, dated 2016)", "molecules": {"B1": {"name": "SS1: humanized GHR antagonist antibody; VL SEQ ID NO: 7, VH SEQ ID NO: 8; hIgG2Δa heavy chain SEQ ID NO: 134, light chain SEQ ID NO: 135 (antibody)", "heavy": "EVQLVESGGGLVKPGGSLRLSCAASGFTFSDAWMDWVRQAPGKGLEWVAEIRSKANYHATYYAESVKGRFTISRDDSKNTLYLQMNSLKTEDTAVYYCTLIRDYWGQGTLVTVSSASTKGPSVFPLAPCSRSTSESTAALGCLVKDYFPEPVTVSWNSGALTSGVHTFPAVLQSSGLYSLSSVVTVPSSNFGTQTYTCNVDHKPSNTKVDKTVERKCCVECPPCPAPPVAGPSVFLFPPKPKDTLMISRTPEVTCVVVDVSHEDPEVQFNWYVDGVEVHNAKTKPREEQFNSTFRVVSVLTVVHQDWLNGKEYKCKVSNKGLPSSIEKTISKTKGQPREPQVYTLPPSREEMTKNQVSLTCLVKGFYPSDIAVEWESNGQPENNYKTTPPMLDSDGSFFLYSKLTVDKSRWQQGNVFSCSVMHEALHNHYTQKSLSLSPGK", "light": "EIVLTQSPGTLSLSPGERATLSCTATSSVSSSYLNWYQQKPGQAPRLLIYSTSNLASGIPDRFSGSGSGTDFTLTISRLEPEDFAVYYCHQYHRSTPTFGGGTKVEIKRTVAAPSVFIFPPSDEQLKSGTASVVCLLNNFYPREAKVQWKVDNALQSGNSQESVTEQDSKDSTYSLSSTLTLSKADYEKHKVYACEVTHQGLSSPVTKSFNRGEC", "modifications": "Humanized and/or affinity matured antibody sequence"}}, "key": {"IGF-1": {"tested_on": "IGF-1", "assay": "Serum IGF-1 levels in cynomolgus monkeys after a single antibody dose", "format": "in vivo, cynomolgus monkey", "procedure": "Serum samples were analyzed for changes in IGF-1 levels compared to baseline using an R&D Systems™ Quantikine™ human IGF-1 immunoassay kit (cat. #DG100).\n(§1) To determine if GHR antagonist monoclonal antibodies can affect IGF-1, IGFBP-3, and ALS levels in vivo by inhibiting the function of GHR, the effect of humanized anti-human GHR antibody SS1 was tested in cynomolgus monkeys. A dose-response study was conducted to test for changes in IGF-1, IGFBP-3, and ALS levels following a single dose of SS1. Eight naïve female cynomolgus monkeys were injected intravenously with a single dose of SS1 or negative control human IgG2, in 1×PBS 0.01% Tween™ 20. Two monkeys were dosed with 30 mg/kg SS1, two were dosed with 10 mg/kg SS1, two were dosed with 3 mg/kg SS1, and two were dosed with 30 mg/kg negative control human IgG2Δa on Day 1. Serum samples were taken from all animals at the following timepoints: pre-dose, 24 h, 48 h, 72 h, 120 h, 144 h, 192 h, 240 h, 336 h, 528 h, 696 h. Serum was also taken from the 30 mg/kg SS1 and negative control treated animals at 864 h post-dose.\n(§2) Six naïve female cynomolgus monkeys were injected either intravenously or subcutaneously with a single dose of […] or negative control human IgG2Δa in 1×PBS 0.01% Tween™ 20. Two monkeys were dosed with 3 mg/kg SS1 intravenously, two were dosed with 3 mg/kg SS1 subcutaneously, and two were dosed with 3 mg/kg negative control human IgG2Δa subcutaneously on Day 1. Serum samples were taken from all animals at the following timepoints: pre-dose, 24 h, 72 h, 120 h, 168 h, 216 h, 264 h, 312 h, 360 h, 408 h, 456 h and 504 h."}, "ALS": {"tested_on": "ALS", "assay": "Serum ALS levels in cynomolgus monkeys after a single antibody dose", "format": "in vivo, cynomolgus monkey", "settings": "for serum ALS levels decreased to about: by 96 hours; for serum ALS decrease below control: by 72 hours", "procedure": "as §1, with “Serum samples were taken from all animals at the following timepoints: pre-dose, 24 h, 48 h, 72 h, 120 h, 144 h, 192 h, 240 h, 336 h, 528 h, 696 h.” left out\nSerum samples were analyzed for changes in ALS levels compared to baseline using a BioVendor™ Human ALS ELISA kit (cat. #RMEE35R).\nas §2"}}, "data": [{"molecule": "B1", "values": [{"measurement": "serum IGF-1 decrease below baseline levels", "setting": "IGF-1; cynomolgus monkeys, single IV dose of 3, 10 or 30 mg/kg SS1, by 120 hours", "value": "about 75%"}, {"measurement": "serum IGF-1 decrease below control", "setting": "IGF-1; cynomolgus monkeys, single dose 3 mg/kg SS1 subcutaneous (SC) or intravenous (IV), by 72 hours", "value": "about 63%"}, {"measurement": "effect on serum IGF-1 levels in cynomolgus monkeys", "setting": "IGF-1; single IV dose, dose-response", "value": "dose dependently reduces serum IGF-1 levels"}, {"measurement": "serum ALS levels (% change from baseline)", "setting": "ALS; Table 12, cynomolgus monkeys, SS1 3 mg/kg IV single dose, 24 h post-injection", "value": "−23.0 +/− 4.0%"}, {"measurement": "serum ALS levels (% change from baseline)", "setting": "ALS; Table 12, cynomolgus monkeys, SS1 3 mg/kg IV single dose, 48 h post-injection", "value": "−41.7 +/− 3.6%"}, {"measurement": "serum ALS levels (% change from baseline)", "setting": "ALS; Table 12, cynomolgus monkeys, SS1 3 mg/kg IV single dose, 72 h post-injection", "value": "−45.4 +/− 0.9%"}, {"measurement": "serum ALS levels (% change from baseline)", "setting": "ALS; Table 12, cynomolgus monkeys, SS1 3 mg/kg IV single dose, 96 h post-injection", "value": "−50.7 +/− 2.3%"}, {"measurement": "serum ALS levels (% change from baseline)", "setting": "ALS; Table 12, cynomolgus monkeys, SS1 3 mg/kg IV single dose, 120 h post-injection", "value": "−48.0 +/− 0.4%"}, {"measurement": "serum ALS levels (% change from baseline)", "setting": "ALS; Table 12, cynomolgus monkeys, SS1 3 mg/kg IV single dose, 144 h post-injection", "value": "−45.5 +/− 8.4%"}, {"measurement": "serum ALS levels (% change from baseline)", "setting": "ALS; Table 12, cynomolgus monkeys, SS1 3 mg/kg IV single dose, 192 h post-injection", "value": "−50.7 +/− 8.8%"}, {"measurement": "serum ALS levels (% change from baseline)", "setting": "ALS; Table 12, cynomolgus monkeys, SS1 3 mg/kg IV single dose, 312 h post-injection", "value": "−22.0 +/− 8.2%"}, {"measurement": "serum ALS levels (% change from baseline)", "setting": "ALS; Table 12, cynomolgus monkeys, SS1 3 mg/kg IV single dose, 336 h post-injection", "value": "−23.7 +/− 6.4%"}, {"measurement": "serum ALS levels (% change from baseline)", "setting": "ALS; Table 12, cynomolgus monkeys, SS1 10 mg/kg IV single dose, 24 h post-injection", "value": "27.3 +/− 32.1%"}, {"measurement": "serum ALS levels (% change from baseline)", "setting": "ALS; Table 12, cynomolgus monkeys, SS1 10 mg/kg IV single dose, 48 h post-injection", "value": "−9.4 +/− 23.4%"}, {"measurement": "serum ALS levels (% change from baseline)", "setting": "ALS; Table 12, cynomolgus monkeys, SS1 10 mg/kg IV single dose, 72 h post-injection", "value": "−8.0 +/− 35.2%"}, {"measurement": "serum ALS levels (% change from baseline)", "setting": "ALS; Table 12, cynomolgus monkeys, SS1 10 mg/kg IV single dose, 96 h post-injection", "value": "−24.1 +/− 23.6%"}, {"measurement": "serum ALS levels (% change from baseline)", "setting": "ALS; Table 12, cynomolgus monkeys, SS1 10 mg/kg IV single dose, 120 h post-injection", "value": "−17.5 +/− 30.4%"}, {"measurement": "serum ALS levels (% change from baseline)", "setting": "ALS; Table 12, cynomolgus monkeys, SS1 10 mg/kg IV single dose, 144 h post-injection", "value": "−46.5 +/− 1.9%"}, {"measurement": "serum ALS levels (% change from baseline)", "setting": "ALS; Table 12, cynomolgus monkeys, SS1 10 mg/kg IV single dose, 192 h post-injection", "value": "−39.4 +/− 3.3%"}, {"measurement": "serum ALS levels (% change from baseline)", "setting": "ALS; Table 12, cynomolgus monkeys, SS1 10 mg/kg IV single dose, 312 h post-injection", "value": "−38.7 +/− 4.1%"}, {"measurement": "serum ALS levels (% change from baseline)", "setting": "ALS; Table 12, cynomolgus monkeys, SS1 10 mg/kg IV single dose, 336 h post-injection", "value": "−40.4 +/− 0.4%"}, {"measurement": "serum ALS levels (% change from baseline)", "setting": "ALS; Table 12, cynomolgus monkeys, SS1 30 mg/kg IV single dose, 24 h post-injection", "value": "3.9 +/− 4.2%"}, {"measurement": "serum ALS levels (% change from baseline)", "setting": "ALS; Table 12, cynomolgus monkeys, SS1 30 mg/kg IV single dose, 48 h post-injection", "value": "−35.1 +/− 1.9%"}, {"measurement": "serum ALS levels (% change from baseline)", "setting": "ALS; Table 12, cynomolgus monkeys, SS1 30 mg/kg IV single dose, 72 h post-injection", "value": "−34.9 +/− 10.5%"}, {"measurement": "serum ALS levels (% change from baseline)", "setting": "ALS; Table 12, cynomolgus monkeys, SS1 30 mg/kg IV single dose, 96 h post-injection", "value": "−48.8 +/− 8.0%"}, {"measurement": "serum ALS levels (% change from baseline)", "setting": "ALS; Table 12, cynomolgus monkeys, SS1 30 mg/kg IV single dose, 120 h post-injection", "value": "−41.2 +/− 13.9%"}, {"measurement": "serum ALS levels (% change from baseline)", "setting": "ALS; Table 12, cynomolgus monkeys, SS1 30 mg/kg IV single dose, 144 h post-injection", "value": "−50.0 +/− 4.4%"}, {"measurement": "serum ALS levels (% change from baseline)", "setting": "ALS; Table 12, cynomolgus monkeys, SS1 30 mg/kg IV single dose, 192 h post-injection", "value": "−50.2 +/− 2.0%"}, {"measurement": "serum ALS levels (% change from baseline)", "setting": "ALS; Table 12, cynomolgus monkeys, SS1 30 mg/kg IV single dose, 312 h post-injection", "value": "−47.1 +/− 2.7%"}, {"measurement": "serum ALS levels (% change from baseline)", "setting": "ALS; Table 12, cynomolgus monkeys, SS1 30 mg/kg IV single dose, 336 h post-injection", "value": "−50.1 +/− 4.4%"}, {"measurement": "serum ALS levels (% change from baseline)", "setting": "ALS; Table 14, cynomolgus monkeys, SS1 3 mg/kg IV single dose, 24 hour post-injection", "value": "−4.5 +/− 4.6%"}, {"measurement": "serum ALS levels (% change from baseline)", "setting": "ALS; Table 14, cynomolgus monkeys, SS1 3 mg/kg IV single dose, 72 hour post-injection", "value": "−31.1 +/− 10.1%"}, {"measurement": "serum ALS levels (% change from baseline)", "setting": "ALS; Table 14, cynomolgus monkeys, SS1 3 mg/kg IV single dose, 120 hour post-injection", "value": "−37.5 +/− 9.4%"}, {"measurement": "serum ALS levels (% change from baseline)", "setting": "ALS; Table 14, cynomolgus monkeys, SS1 3 mg/kg IV single dose, 168 hour post-injection", "value": "−32.9 +/− 4.0%"}, {"measurement": "serum ALS levels (% change from baseline)", "setting": "ALS; Table 14, cynomolgus monkeys, SS1 3 mg/kg IV single dose, 264 hour post-injection", "value": "−9.3 +/− 2.5%"}, {"measurement": "serum ALS levels (% change from baseline)", "setting": "ALS; Table 14, cynomolgus monkeys, SS1 3 mg/kg IV single dose, 312 hour post-injection", "value": "−4.9 +/− 3.0%"}, {"measurement": "serum ALS levels (% change from baseline)", "setting": "ALS; Table 14, cynomolgus monkeys, SS1 3 mg/kg IV single dose, 360 hour post-injection", "value": "−9.7 +/− 9.6%"}, {"measurement": "serum ALS levels (% change from baseline)", "setting": "ALS; Table 14, cynomolgus monkeys, SS1 3 mg/kg SQ single dose, 24 hour post-injection", "value": "−15.9 +/− 0.2%"}, {"measurement": "serum ALS levels (% change from baseline)", "setting": "ALS; Table 14, cynomolgus monkeys, SS1 3 mg/kg SQ single dose, 72 hour post-injection", "value": "−42.7 +/− 0.5%"}, {"measurement": "serum ALS levels (% change from baseline)", "setting": "ALS; Table 14, cynomolgus monkeys, SS1 3 mg/kg SQ single dose, 120 hour post-injection", "value": "−41.1 +/− 7.1%"}, {"measurement": "serum ALS levels (% change from baseline)", "setting": "ALS; Table 14, cynomolgus monkeys, SS1 3 mg/kg SQ single dose, 168 hour post-injection", "value": "−33.7 +/− 6.5%"}, {"measurement": "serum ALS levels (% change from baseline)", "setting": "ALS; Table 14, cynomolgus monkeys, SS1 3 mg/kg SQ single dose, 264 hour post-injection", "value": "−16.5 +/− 13.2%"}, {"measurement": "serum ALS levels (% change from baseline)", "setting": "ALS; Table 14, cynomolgus monkeys, SS1 3 mg/kg SQ single dose, 312 hour post-injection", "value": "−5.0 +/− 13.6%"}, {"measurement": "serum ALS levels (% change from baseline)", "setting": "ALS; Table 14, cynomolgus monkeys, SS1 3 mg/kg SQ single dose, 360 hour post-injection", "value": "−10.0 +/− 10.2%"}, {"measurement": "serum ALS levels decreased to about", "setting": "ALS; cynomolgus monkeys, SS1 3 mg/kg IV single dose", "value": "about 51%"}, {"measurement": "serum ALS levels decreased to about", "setting": "ALS; cynomolgus monkeys, SS1 10 mg/kg IV single dose", "value": "~24", "unit": "%"}, {"measurement": "serum ALS levels decreased to about", "setting": "ALS; cynomolgus monkeys, SS1 30 mg/kg IV single dose", "value": "~49", "unit": "%"}, {"measurement": "time by which serum ALS levels returned to baseline levels", "setting": "ALS; cynomolgus monkeys, single dose 3 mg/kg SS1 SQ or IV", "value": "≤ 312", "unit": "h"}, {"measurement": "serum ALS decrease below control", "setting": "ALS; cynomolgus monkeys, single dose 3 mg/kg SS1 intravenous (IV)", "value": "about 31%"}, {"measurement": "serum ALS decrease below control", "setting": "ALS; cynomolgus monkeys, single dose 3 mg/kg SS1 subcutaneous (SQ)", "value": "about 43%"}, {"measurement": "effect on serum ALS levels in cynomolgus monkey", "setting": "ALS; single IV dose 3, 10 or 30 mg/kg", "value": "reduces serum ALS levels"}]}]}
